Usually stoichiometry N stands for the number of molecules, sites or subunits per partner or assembly. Usually Kd stands for the equilibrium constant for the complex coming apart.

T1: holo-AcpP (E. coli FAS acyl carrier protein, 4'-phosphopantetheine arm installed) (E. coli), P0A6A8
T1 chain: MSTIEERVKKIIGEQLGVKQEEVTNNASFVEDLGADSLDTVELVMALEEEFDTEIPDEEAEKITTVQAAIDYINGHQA

B1: holo-AcpP (E. coli FAS acyl carrier protein, 4'-phosphopantetheine arm installed), P0A6A8 1-78 (natural protein)
chain: T1 chain
modifications: here or on the partner: 4'-phosphopantetheine (Ppant) arm on the conserved serine at the N-terminus of helix II (holo form); 4'-phosphopantetheine (Ppant) arm on the conserved serine at the N-terminus of helix II (holo form)
B2: holo-AcpP (E. coli FAS acyl carrier protein, 4'-phosphopantetheine arm installed) (natural protein, UniProt P0A6A8 1-78, looked up)
chain: T1 chain
modifications: 4'-phosphopantetheine (Ppant) arm on the conserved serine at the N-terminus of helix II (holo form)
notes: E. coli fatty acid synthase acyl carrier protein AcpP, UniProt P0A6A8; N- and C-terminal His6, from pKJ5535 or pTL14; AUC section gives 12.3 kDa for AcpP; also called E. coli ACP; source: E. coli BAP1, purified (Ni-NTA); converted to holo form on resin with Sfp R4-4 and coenzyme A
B3: AcpP-TNB− (E. coli AcpP with the Ppant thiol as mixed disulfide with 2-nitro-5-thiobenzoate) (natural protein, UniProt P0A6A8 1-78, looked up)
chain: T1 chain
modifications: 4'-phosphopantetheine arm on the conserved serine; its terminal thiol is a mixed disulfide with 2-nitro-5-thiobenzoate (TNB−)
notes: E. coli fatty acid synthase acyl carrier protein AcpP, UniProt P0A6A8; also called ACP-TNB−; AcpP-TNB− adduct; source: E. coli BAP1, purified (Ni-NTA), converted to holo form with Sfp R4-4, treated with DTNB, desalted (PD-10)
B4: FabF (E. coli ketoacyl synthase) (enzyme, UniProt P0AAI5 1-413, looked up)
chain: MSKRRVVVTGLGMLSPVGNTVESTWKALLAGQSGISLIDHFDTSAYATKFAGLVKDFNCEDIISRKEQRKMDAFIQYGIVAGVQAMQDSGLEITEENATRIGAAIGSGIGGLGLIEENHTSLMNGGPRKISPFFVPSTIVNMVAGHLTIMYGLRGPSISIATACTSGVHNIGHAARIIAYGDADVMVAGGAEKASTPLGVGGFGAARALSTRNDNPQAASRPWDKERDGFVLGDGAGMLVLEEYEHAKKRGAKIYAELVGFGMSSDAYHMTSPPENGAGAALAMANALRDAGIEASQIGYVNAHGTSTPAGDKAEAQAVKTIFGEAASRVLVSSTKSMTGHLLGAAGAVESIYSILALRDQAVPPTINLDNPDEGCDLDFVPHEARQVSGMEYTLCNSFGFGGTNGSLIFKKI
notes: E. coli ketoacyl synthase FabF; Sediments mostly as a dimer in SV-AUC; also called KS; E. coli KS FabF; source: E. coli BL21, purified (Ni-NTA)

Data set [1] deals with T1, holo-AcpP (E. coli FAS acyl carrier …). The experiment in a line: AUC; sedimentation velocity of each protein alone; FabF 10-36 uM, holo-AcpP 345-488 uM, holo-ACT ACP (wild type) 98-196 uM; 20 mM Tris-HCl pH 8.0, 150 mM NaCl, 1 mM DTT, 20 C. The note with it: remark: other sources report otherwise.
In data set [2] the target is B4. The experiment in a line: AUC; sedimentation velocity titration; FabF constant at 16 uM, AcpP 0-230 uM or ACT ACP 0-250 uM; 20 mM Tris-HCl pH 8.0, 150 mM NaCl, 1 mM DTT, 20 C; s(w) and EPT s(w) fast isotherms fitted globally to A + B <-> AB. The note with it: both partners purified.
In data set [3] the target is B4. The experiment in a line: colorimetric read-out of the cross-linking (TNB2− release, A412); ACP-TNB− mixed with FabF at ACP-TNB:FabF molar ratios 0.2:1 to 3:1; 50 mM sodium phosphate pH 7.6, 20 min, room temperature; A412 of the reaction mixture. The note with it: both partners purified.
Data set [4] deals with the molecule itself. The experiment in a line: AUC; sedimentation velocity of each protein alone; FabF 10-36 uM, holo-AcpP 345-488 uM, holo-ACT ACP (wild type) 98-196 uM; 20 mM Tris-HCl pH 8.0, 150 mM NaCl, 1 mM DTT, 20 C.

For the molecule B1, the stoichiometry N in data set [1] was 4.

Take B2: the Kd in data set [2] stood at 6.4 ± 2 µM. For B3, the “stoichiometry N” value in data set [3] was found to be 1. In the case of B4, the “stoichiometry N” value in data set [4] stood at 2.

The values are drawn from article PMC6821831, “Colorimetric Assay Reports on Acyl Carrier Protein Interactions” (Scientific Reports, 2019).
